± gives the standard deviation of the averaged measurements.
The sequences below were run on ATP (assay: switch fluorescence ratio, 500 uM ATP over buffer (Cy3 cluster intensity, sum of 5 cycles each) (fold (ratio)); higher = stronger signal-on switching upon ATP binding; sequences stand for … in TCGTCGGCAGCGTCAGATGTGTATAAGAGACAGTTTTTTTTTTTTTTTTTTTTTTTTT…TC). Conditions: aptamer strand: ATP DNA aptamer (quencher-CACCTGGGGGAGTATTGCGGAGGAAGG + anchor), 100 nM annealed; ATP concentration: 500 uM.
Method in brief: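 Values give the fluorescence ratio for each switch-domain sequence, averaged from per-cluster ratios of summed target-cycle to summed buffer-cycle Cy3 intensity. The Cy3-labelled switching-strand clusters sat on a modified Illumina MiSeq flow-cell, were annealed to 100 nM quencher-labelled ATP aptamer, and were imaged in selection buffer, then after 15 min with 500 uM ATP at 22 °C. Five cycles ran with NaOH stripping and re-annealing between them, and clusters outside 100-1000 RFU were excluded.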
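Also: ATP exposure 15 min at 22 °C before imaging.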

Row | Sequence | switch fluorescence ratio
1 | AACAGCCACA | 1.11 ± 0.028
2 | AACAGGATGC | 1.027 ± 0.0039
3 | AACAGGGGCT | 1.09 ± 0.12
4 | AACAGTGATA | 1.01 ± 0.027
5 | AACAGTGTAG | 1 ± 0.013
6 | AACAGTTCTG | 0.986 ± 0.027
7 | AACAGTTTGT | 1 ± 0.017
8 | AACATAGTAG | 0.96446 ± 0.0004
9 | AACATGCGCA | 0.9712 ± 0.0047
10 | AACATTTTAA | 0.965 ± 0.04
11 | AACATTTTTG | 0.998 ± 0.026
12 | AACCAATCGA | 1.04 ± 0.05
13 | AACCATGGGT | 1.01 ± 0.03
14 | AACCCGGATT | 0.9958 ± 0.0035
15 | AACCGGTGCA | 1.08 ± 0.017
16 | AACCGTGGCG | 1.07 ± 0.041
17 | AACCTCTTAG | 0.992 ± 0.026
18 | AACCTGCTAA | 1.057 ± 0.0014
19 | AACCTGTCGG | 1.01 ± 0.028
20 | AACGAAGATT | 1.01 ± 0.019
21 | AACGAATAAA | 0.994 ± 0.025
22 | AACGACCCCC | 1.74 ± 0.31
23 | AACGAGACCA | 1.07 ± 0.052
24 | AACGAGAGGG | 1.04 ± 0.035
25 | AACGAGTGTG | 1.01 ± 0.052

Row | Sequence | switch fluorescence ratio
26 | AACGATAAAT | 1.03 ± 0.014
27 | AACGATAGCA | 1.08 ± 0.016
28 | AACGATTGGG | 0.948 ± 0.027
29 | AACGGAACTA | 1.15 ± 0.019
30 | AACGGACAAA | 1.2 ± 0.052
31 | AACGGACGGC | 1.48 ± 0.098
32 | AACGGCAGGT | 1.03 ± 0.013
33 | AACGGCAGTG | 1.03 ± 0.022
34 | AACGGCGCTA | 1.045 ± 0.0057
35 | AACGGGACCT | 1.33 ± 0.081
36 | AACGGGATAT | 1.09 ± 0.0021
37 | AACGGGATGG | 1.02 ± 0.036
38 | AACGGGGATA | 1.049 ± 0.0065
39 | AACGGGTAGC | 0.993 ± 0.029
40 | AACGGTCTGA | 1.009 ± 0.0024
41 | AACGGTTGAT | 0.974 ± 0.015
42 | AACGGTTTGG | 1.01 ± 0.021
43 | AACGTGAGGG | 0.989 ± 0.051
44 | AACGTGATTA | 1.07 ± 0.023
45 | AACGTGTTTT | 1.042 ± 0.006
46 | AACGTTATCT | 1.04 ± 0.015
47 | AACGTTCGCC | 0.987 ± 0.032
48 | AACGTTGTAC | 1.51 ± 0.037
49 | AACTAGATCG | 1.02 ± 0.028
50 | AACTAGGGTG | 1.12 ± 0.013

Row | Sequence | switch fluorescence ratio
51 | AACTATATGG | 1.046 ± 0.0081
52 | AACTCACGGG | 1.63 ± 0.083
53 | AACTCAGCCG | 1.03 ± 0.013
54 | AACTCCAGTA | 1.008 ± 0.005
55 | AACTCCCTTT | 1.067 ± 0.0086
56 | AACTCCGGCG | 1.129 ± 0.0087
57 | AACTCTAAAA | 1.05 ± 0.051
58 | AACTGAGACT | 1.02 ± 0.032
59 | AACTGAGTTT | 1.008 ± 0.0015
60 | AACTGCGGTC | 1.016 ± 0.0031
61 | AACTGGCAAT | 1.5 ± 0.072
62 | AACTGTAAAT | 1.25 ± 0.2
63 | AACTGTGGAA | 0.991 ± 0.015
64 | AACTGTTTCG | 0.9707 ± 0.0013
65 | AACTTGTTAG | 1.01 ± 0.016
66 | AACTTTGTTG | 1 ± 0.011
67 | AACTTTTAGT | 0.99353 ± 0.00074
68 | AACTTTTTCG | 1.012 ± 0.0034
69 | AACTTTTTTA | 0.964 ± 0.017
70 | AAGAAAACGA | 0.998 ± 0.011
71 | AAGAAAAGGA | 1.02 ± 0.017
72 | AAGAAAGGTA | 1.01 ± 0.025
73 | AAGAAAGTCG | 0.9998 ± 0.0052
74 | AAGAAATAAA | 0.9744 ± 0.0095
75 | AAGAAATGGT | 1.05 ± 0.043

Row | Sequence | switch fluorescence ratio
76 | AAGAACTTAG | 1.026 ± 0.0074
77 | AAGAAGCAGA | 1 ± 0.032
78 | AAGAAGCAGG | 1.06 ± 0.037
79 | AAGAAGGGCA | 1 ± 0.055
80 | AAGAAGGGGA | 1.22 ± 0.31
81 | AAGAATATGT | 0.9756 ± 0.008
82 | AAGAATTGGG | 1.06 ± 0.11
83 | AAGACACGC | 1.04 ± 0.042
84 | AAGACAGGAA | 1.03 ± 0.05
85 | AAGACATGGG | 1.002 ± 0.0021
86 | AAGACCGTTG | 0.967 ± 0.017
87 | AAGACGGGGA | 0.974 ± 0.023
88 | AAGAGACTGT | 1.002 ± 0.0034
89 | AAGAGGCTGG | 0.99 ± 0.024
90 | AAGAGGGACT | 1.03 ± 0.021
91 | AAGAGGGCGG | 0.991 ± 0.034
92 | AAGAGGGGAG | 1.01 ± 0.013
93 | AAGAGGGGGA | 0.996 ± 0.042
94 | AAGAGGGGGT | 1 ± 0.03
95 | AAGAGGGGT | 0.9904 ± 0.0048
96 | AAGAGGTTTT | 1.01 ± 0.02
97 | AAGAGTAGAT | 1.01 ± 0.017
98 | AAGAGTATCT | 1.01 ± 0.013
99 | AAGAGTATTG | 1 ± 0.02
100 | AAGAGTTTTT | 0.981 ± 0.033

Reference: the supplement of paper PMC10126150
